Measured values as given in patent US12674167B2, “Aptamer specifically binding to cancer stem cells, and use thereof” (HiCELL Tech, priority 2019, dated 2026).
[NapdU] = 5-(N-naphthylcarboxyamide)-2'-deoxyuridine

B1: AT5: 76-mer CD166 aptamer, N = NapdU: TCAGCCGCCAGCCAGTTCANNNGANAAAGCNCCGNNANCGGGCCCCNNGNAGAGNCANGACCAGAGCACCACAGAG (nucleic acid)
DNA: TCAGCCGCCAGCCAGTTCAUUUGAUAAAGCUCCGUUAUCGGGCCCCUUGUAGAGUCAUGACCAGAGCACCACAGAG
modifications: DNA, [NapdU] at 20, 21, 22, 25, 31, 35, 36, 38, 47, 48, 50, 55, 58, backbone not given here
B2: AT4: 76-mer CD166 aptamer, N = NapdU: TCAGCCGCCAGCCAGTTCCNNCNAGAGNCANGCACGNNANCGGACCNGNCGGCGAANGGACCANANCACCACAGAG (nucleic acid)
DNA: TCAGCCGCCAGCCAGTTCCUUCUAGAGUCAUGCACGUUAUCGGACCUGUCGGCGAAUGGACCAUAUCACCACAGAG
modifications: DNA, [NapdU] at 20, 21, 23, 28, 31, 37, 38, 40, 47, 49, 57, 64, 66, backbone not given here

Legend:
[1] = system: ovarian cancer stem cell line A2780-SP cells; assay: Affinity of CD166 aptamer to ovarian cancer stem cells by flow cytometry (FACS); format: binding; details: for affinity: as found in Example 8 (FACS)
Procedure: It was confirmed whether the CD166 aptamer constructed in Example 7 recognized ovarian cancer cells and ovarian cancer stem cells. The following experiment was performed to analyze the interaction between the CD166 aptamer and the ovarian cancer cell line A2780 cells. First, each of the CD166 aptamer (AT-1, AT-2, AT-3, AT-4, AT-5 and AT-6) was dissolved in sterile tertiary water and then heated at 95° C. for 5 minutes. After heating, it was cooled to 25° C. The aptamer was added to the ovarian cancer cell line A2780 cells at a concentration of 500 nM, and then the cells were cultured at room temperature and stained. Thereafter, the cells reacted with the CD166 aptamer were analyzed using a flow cytometer (fluorescence activated cell sorter, FACS), and the results are shown in FIG. 18.
In addition, in the same manner as described above, the ovarian cancer stem cell line A2780-SP cells were reacted with the CD166 aptamer, and then FACS was performed, and the results are shown in FIG. 19.
The affinity of the CD166 aptamer AT-5 and the CD166 FACS antibody (PE Mouse Anti-Human CD166, Cat:559263, BD Pharminggen) as the control to the ovarian cancer stem cell line A2780-SP cells was compared.

[2] = system: CD166 expressing cells isolated from ovarian cancer stem cells; assay: Cell adhesion experiment, CD166 expressing ovarian cancer stem cells; format: cell-based; details: aptamer 500 nM, 1 hour, collagen-coated plate, FIG. 21
Procedure: The effect of the CD166 aptamer on cell adhesion ability was confirmed using the CD166 aptamers AT3, AT4 and AT5. Specifically, CD166 expressing cells were isolated from ovarian cancer stem cells using the CD166 FACS antibody. Cell adhesion experiment of the CD166 aptamer was performed using the isolated cells. First, […] blocked with 20 μg/ml of collagen for 1 hour. After blocking, 0.1% bovine serum albumin (BSA) was added and incubated for 1 hour to limit non-specific binding. The isolated cells were each exposed to the CD166 aptamer (500 nM) for 1 hour and then fixed with 4% formaldehyde. The fixed cells were stained with hoest33342.

[3] = system: CD166-high cells of ovarian cancer stem cell line A2780-SP; assay: Tumor formation from aptamer-treated A2780-SP cells inoculated subcutaneously; format: in vivo, nude mice
Procedure: The effect of the CD166 aptamer AT-5 on tumor formation was confirmed. Specifically, cells in which the expression CD166 is high were isolated from the ovarian cancer stem cell line A2780-SP using a flow cytometer (ARIA3). The isolated cells were reacted with the CD166 aptamer AT-5 for 1 hour, respectively. The cells reacted with the aptamer (1×10^5 cells) were inoculated subcutaneously into nude mice. At this time, the aptamer-untreated cells were inoculated on the left side of nude mice, and the CD166 aptamer AT-5-treated cells were inoculated on the right side of nude mice. After inoculation, the tumor formation size was measured from the 18th day. Nude mice were euthanized on the 38th day of inoculation. Tumors were isolated from nude mice, and finally, the weight and size of the tumors were measured. The results of observation of the isolated tumors are shown in FIG. 26, the results of measuring the size of the tumors are shown in FIG. 27, and the results of measuring the weight of the tumors are shown in FIG. 28, respectively.

[4] = system: patient-derived ovarian cancer stem cells; assay: Affinity of CD166 aptamer to patient-derived ovarian cancer stem cells (FACS); format: binding; details: FIG. 36A
[5] = system: focal adhesion signaling pathway in patient-derived ovarian cancer stem cells; assay: Focal adhesion signaling pathway by Western blotting, patient-derived ovarian cancer stem cells; format: cell-based; details: aptamer 1 hour, FIG. 39
From the text: (§1) CD166 expression was inhibited using siRNA in the ovarian cancer stem cell line A2780-SP, and the focal adhesion signaling pathway was confirmed in CD166 expression-inhibited cells through Western blotting. Specifically, in order to inhibit the expression of CD166, the control (si Control) (5′-UUCUCCGAACGUGUCACGUTT-3′ (SEQ ID NO: 23); 5′-ACGUGACACGUUCGGAGAATT-3′ (SEQ ID NO: 24) and si CD166 (5′-AAGCCCGAUGGCUCCCCAGUAUU-3′ (SEQ ID NO: 25); 5′-AAUACUGGGGAGCCAUCGGGCUU-3′ (SEQ ID NO: 26) were constructed. The expression of CD166 was inhibited by reacting the constructed siRNA and the ovarian cancer stem cell line A2780-SP cells, and the cells were cultured after inhibition of expression. After culturing for 48 hours, the cells were collected, and protein expression of FAK, SRC, Paxillin and CD44, which are known as major genes of the focal adhesion signaling pathway, was confirmed through Western blotting. Antibodies against CD166 (ab109215, Abcam), CD44 (5640S, Cell Signaling Technology), p-PAXILLIN (2541S, Cell Signaling Technology), p-SRC (2101S, Cell Signaling Technology), p-FAK (3284S, Cell Signaling Technology), FAK (3285S, Cell Signaling Technology) and GAPDH (MAB374, EMD Milliore Corp, Billerica, MA) were used as primary antibodies. The results of confirming the focal adhesion signaling pathway inhibitory activity in CD166 expression-inhibited cells are shown in FIG. 14.
The patient-derived ovarian cancer stem cells were reacted with the CD166 aptamers AT-3 and AT-5 for 1 hour, respectively, and then the focal adhesion signaling pathway was confirmed in CD166 expression-inhibited cells through Western blotting. The Western blotting was performed in the same manner as in Example 5.

[6] = system: focal adhesion signaling pathway in mesenchymal stem cells; assay: Focal adhesion signaling pathway by Western blotting, mesenchymal stem cells; format: cell-based; details: aptamer 1 hour, normal stem cells, FIG. 44
From the text: as §1
The mesenchymal stem cells were reacted with the CD166 aptamer AT-5 for 1 hour, respectively, and then the focal adhesion signaling pathway was confirmed in CD166 expression-inhibited cells through Western blotting. The Western blotting was performed in the same manner as in Example 5. In addition, the focal adhesion signaling pathway by CD166 expression inhibition in the mesenchymal stem cells was confirmed by the method of Example 4, and the results are shown in FIG. 44.

Molecule | specificity of binding to ovarian cancer stem cells among the CD166 aptamers ([1]; 500 nM, FACS, FIG. 19) | affinity [1] | cell adhesion [2] | tumor formation ([3]; cells pre-reacted with aptamer 1 hour, 1×10^5 cells subcutaneous, nude mice, FIG. 26) | size of the tumor ([3]; vs aptamer untreated group, day 18 to 38, FIG. 27) | weight of the tumor ([3]; vs control, day 38, FIG. 28) | interaction with patient-derived ovarian cancer stem cells, signal intensity [4] | expression of p-PAXILLIN [5] | expression of p-SRC [5] | expression of the p-FAK Y925 site [5] | expression of p-PAXILLIN [6] | expression of p-SRC [6] | expression of the p-FAK Y925 site [6]
B1 | most specifically binds | high affinity | reduced | inhibited | smaller | reduced significantly | the signal intensity is high | inhibited | inhibited | reduced | not affected | not affected | not affected
B2 | – | high affinity | reduced | – | – | – | – | – | – | – | – | – | –
